Data from US20200199204A1 (UNITED STATES OF AMERICA AS REPRESENTED BY THE SECRETARY …, published 2020).

How the values were obtained:
Assay in all cases: cell-based or functional assay
[1] = target: HIV-1 Env of Q461.e2 (HIV-1)
[2] = target: HIV-1 Env of ZM109.4 (HIV-1)
[3] = target: HIV-1 Env of 3016.V5.c36 (HIV-1)
[4] = target: HIV-1 Env of DU172.17 (HIV-1)
[5] = target: HIV-1 Env of TRJO.58 (HIV-1)
[6] = target: HIV-1 Env of ZM249.1 (HIV-1)
[7] = target: HIV-1 Env of SC422.8 (HIV-1)
[8] = target: HIV-1 Env of TH976.17 (HIV-1)
[9] = target: HIV-1 Env of 0260.v5.c36 (HIV-1)
[10] = target: HIV-1 Env of CAAN.A2 (HIV-1)
[11] = target: HIV-1 Env of MB539.2B7 (HIV-1)
[12] = target: HIV-1 Env of DU156.12 (HIV-1)
[13] = target: HIV-1 Env of Q23.17 (HIV-1)
[14] = target: HIV-1 Env of 6405.v4.c34 (HIV-1)
[15] = target: HIV-1 Env of UG037.8 (HIV-1)
[16] = target: HIV-1 Env of ZM214.15 (HIV-1)
[17] = target: HIV-1 Env of Q842.d12 (HIV-1)
[18] = target: HIV-1 Env of ZM53.12 (HIV-1)
[19] = target: HIV-1 Env of RW020.2 (HIV-1)
[20] = target: HIV-1 Env of RHPA.7 (HIV-1)
[21] = target: HIV-1 Env of 96ZM651.02 (HIV-1)
[22] = target: HIV-1 Env of AC10.29 (HIV-1)
[23] = target: HIV-1 Env of CAP256.SU (HIV-1)
[24] = target: HIV-1 Env of BG505.w6m (HIV-1)
[25] = target: HIV-1 Env of ZM135.10a (HIV-1)
[26] = target: HIV-1 Env of 6535.3 (HIV-1)
[27] = target: HIV-1 Env of CAP256.PI (HIV-1)
[28] = target: HIV-1 Env of CAP244.D3 (HIV-1)
[29] = target: HIV-1 Env of WITO.33 (HIV-1)
[30] = target: HIV-1 Env of Q769.d22 (HIV-1)
[31] = target: HIV-1 Env of CM244.ec1 (HIV-1)
[32] = target: HIV-1 Env of PVO.04 (HIV-1)
[33] = target: HIV-1 Env of DU422.01 (HIV-1)
[34] = target: HIV-1 Env of Q168.a2 (HIV-1)
[35] = target: HIV-1 Env of ZM233.6 (HIV-1)
[36] = target: HIV-1 Env of Q259.d2.17 (HIV-1)
[37] = target: HIV-1 Env of QH0692.42 (HIV-1)
[38] = target: HIV-1 Env of TRO.11 (HIV-1)
[39] = target: HIV-1 Env of MB201 (HIV-1)
[40] = target: HIV-1 Env of ZM197.7 (HIV-1)
[41] = target: HIV-1 Env of KER2008.12 (HIV-1)
[42] = target: HIV-1 Env of CAP45.G3 (HIV-1)
[43] = target: HIV-1 Env of REJO.67 (HIV-1)
[44] = target: HIV-1 Env of KER2018.11 (HIV-1)
[45] = target: HIV-1 Env of CAP210.E8 (HIV-1)
[46] = target: HIV-1 Env of C1080.c3 (HIV-1)
[47] = target: HIV-1 Env of THRO.18 (HIV-1)
[48] = target: HIV-1 Env of CNE3 (HIV-1)

B1: CAP256-VRC26.26 (antibody, V domains shown)
VH: EVQLVESGGGIVQPGRSLTLSCVASQFAFSHYGMHWVRQAPGKGLEWVASISRDETKKYHGDSVWDRFSISRDNSKNTLFLQMNSLRAEDTALYFCVRDQREDECEEWWSDYYDFGKELPCRKFRGLGLAGIFDVWGHGTMVIVSS
VL: QSALTQPPSVSAAPGQKVSISCSGNNSNIGNNFISWFQQFPGTAPKPLIYETYKRHSGIPDRFSGSKSGTSATLAITGLQTGDEADYYCATWGVRQGVGALFGTGTKVTVLG
IC50 (neutralization, TZM-bl) [1]: 0.024 µg/mL | IC50 (neutralization, TZM-bl) [2]: 0.025 µg/mL | IC50 (neutralization, TZM-bl) [3]: 0.022 µg/mL | IC50 (neutralization, TZM-bl) [4]: 0.5 µg/mL | IC50 (neutralization, TZM-bl) [5]: > 50 µg/mL | IC50 (neutralization, TZM-bl) [6]: 0.023 µg/mL | IC50 (neutralization, TZM-bl) [7]: 1.74 µg/mL | IC50 (neutralization, TZM-bl) [8]: > 50 µg/mL | IC50 (neutralization, TZM-bl) [9]: 0.78 µg/mL | IC50 (neutralization, TZM-bl) [10]: > 50 µg/mL | IC50 (neutralization, TZM-bl) [11]: 0.634 µg/mL | IC50 (neutralization, TZM-bl) [12]: 0.013 µg/mL | IC50 (neutralization, TZM-bl) [13]: > 50 µg/mL | IC50 (neutralization, TZM-bl) [14]: > 50 µg/mL | IC50 (neutralization, TZM-bl) [15]: > 50 µg/mL | IC50 (neutralization, TZM-bl) [16]: 14.1 µg/mL | IC50 (neutralization, TZM-bl) [17]: 17.1 µg/mL | IC50 (neutralization, TZM-bl) [18]: 0.001 µg/mL | IC50 (neutralization, TZM-bl) [19]: > 50 µg/mL | IC50 (neutralization, TZM-bl) [20]: > 50 µg/mL | IC50 (neutralization, TZM-bl) [21]: 0.111 µg/mL | IC50 (neutralization, TZM-bl) [22]: > 50 µg/mL | IC50 (neutralization, TZM-bl) [23]: 0.003 µg/mL | IC50 (neutralization, TZM-bl) [24]: 0.066 µg/mL | IC50 (neutralization, TZM-bl) [25]: > 50 µg/mL | IC50 (neutralization, TZM-bl) [26]: > 50 µg/mL | IC50 (neutralization, TZM-bl) [27]: > 50 µg/mL | IC50 (neutralization, TZM-bl) [28]: 36.6 µg/mL | IC50 (neutralization, TZM-bl) [29]: > 50 µg/mL | IC50 (neutralization, TZM-bl) [30]: > 50 µg/mL | IC50 (neutralization, TZM-bl) [31]: 0.047 µg/mL | IC50 (neutralization, TZM-bl) [32]: 0.562 µg/mL | IC50 (neutralization, TZM-bl) [33]: 0.08 µg/mL | IC50 (neutralization, TZM-bl) [34]: 0.005 µg/mL | IC50 (neutralization, TZM-bl) [35]: 0.001 µg/mL | IC50 (neutralization, TZM-bl) [36]: 0.011 µg/mL | IC50 (neutralization, TZM-bl) [37]: > 50 µg/mL | IC50 (neutralization, TZM-bl) [38]: > 50 µg/mL | IC50 (neutralization, TZM-bl) [39]: > 50 µg/mL | IC50 (neutralization, TZM-bl) [40]: 0.011 µg/mL | IC50 (neutralization, TZM-bl) [41]: > 50 µg/mL | IC50 (neutralization, TZM-bl) [42]: 0.08 µg/mL | IC50 (neutralization, TZM-bl) [43]: > 50 µg/mL | IC50 (neutralization, TZM-bl) [44]: 0.001 µg/mL | IC50 (neutralization, TZM-bl) [45]: 0.007 µg/mL | IC50 (neutralization, TZM-bl) [46]: 0.016 µg/mL | IC50 (neutralization, TZM-bl) [47]: 0.667 µg/mL | IC50 (neutralization, TZM-bl) [48]: > 50 µg/mL

B2: CAP256-VRC26.27 (antibody, V domains shown)
VH: QKQLVESGGGVVQPGRSLTLSCAASQFPFSHYGMHWVRQAPGKGLEWVASITNDGTKKYHGESVWDRFRISRDNSKNTLFLQMNSLRAEDTALYFCVRDQREDECEEWWSDYYDFGKELPCRKFRGLGLAGIFDIWGHGTMVIVSS
VL: QSVLTQPPSVSAAPGQKVSISCSGNNSNIGNNFISWFQQFPGTAPKPLIYETYRRHSGIPDRFSGSKSGTSATLAITGLQTGDEADYYCATWGVRQGVGALFGTGTKVTVLG
IC50 (neutralization, TZM-bl) [1]: 0.014 µg/mL | IC50 (neutralization, TZM-bl) [2]: 0.027 µg/mL | IC50 (neutralization, TZM-bl) [3]: 0.006 µg/mL | IC50 (neutralization, TZM-bl) [4]: 4.36 µg/mL | IC50 (neutralization, TZM-bl) [5]: > 50 µg/mL | IC50 (neutralization, TZM-bl) [6]: 0.004 µg/mL | IC50 (neutralization, TZM-bl) [7]: 4.86 µg/mL | IC50 (neutralization, TZM-bl) [8]: > 50 µg/mL | IC50 (neutralization, TZM-bl) [9]: 2.1 µg/mL | IC50 (neutralization, TZM-bl) [10]: > 50 µg/mL | IC50 (neutralization, TZM-bl) [11]: 1.15 µg/mL | IC50 (neutralization, TZM-bl) [12]: 0.006 µg/mL | IC50 (neutralization, TZM-bl) [13]: > 50 µg/mL | IC50 (neutralization, TZM-bl) [14]: > 50 µg/mL | IC50 (neutralization, TZM-bl) [15]: > 50 µg/mL | IC50 (neutralization, TZM-bl) [16]: 3.86 µg/mL | IC50 (neutralization, TZM-bl) [17]: 10.6 µg/mL | IC50 (neutralization, TZM-bl) [18]: < 0.0006 µg/mL | IC50 (neutralization, TZM-bl) [19]: > 50 µg/mL | IC50 (neutralization, TZM-bl) [20]: > 50 µg/mL | IC50 (neutralization, TZM-bl) [21]: 0.047 µg/mL | IC50 (neutralization, TZM-bl) [22]: > 50 µg/mL | IC50 (neutralization, TZM-bl) [23]: < 0.0006 µg/mL | IC50 (neutralization, TZM-bl) [24]: 0.102 µg/mL | IC50 (neutralization, TZM-bl) [25]: > 50 µg/mL | IC50 (neutralization, TZM-bl) [26]: > 50 µg/mL | IC50 (neutralization, TZM-bl) [27]: > 50 µg/mL | IC50 (neutralization, TZM-bl) [28]: > 50 µg/mL | IC50 (neutralization, TZM-bl) [29]: > 50 µg/mL | IC50 (neutralization, TZM-bl) [30]: > 50 µg/mL | IC50 (neutralization, TZM-bl) [31]: 0.056 µg/mL | IC50 (neutralization, TZM-bl) [32]: 0.371 µg/mL | IC50 (neutralization, TZM-bl) [33]: 0.015 µg/mL | IC50 (neutralization, TZM-bl) [34]: 0.003 µg/mL | IC50 (neutralization, TZM-bl) [35]: < 0.0006 µg/mL | IC50 (neutralization, TZM-bl) [36]: 0.005 µg/mL | IC50 (neutralization, TZM-bl) [37]: > 50 µg/mL | IC50 (neutralization, TZM-bl) [38]: > 50 µg/mL | IC50 (neutralization, TZM-bl) [39]: > 50 µg/mL | IC50 (neutralization, TZM-bl) [40]: 0.004 µg/mL | IC50 (neutralization, TZM-bl) [41]: 11.3 µg/mL | IC50 (neutralization, TZM-bl) [42]: 0.025 µg/mL | IC50 (neutralization, TZM-bl) [43]: > 50 µg/mL | IC50 (neutralization, TZM-bl) [44]: 0.001 µg/mL | IC50 (neutralization, TZM-bl) [45]: 0.002 µg/mL | IC50 (neutralization, TZM-bl) [46]: 0.149 µg/mL | IC50 (neutralization, TZM-bl) [47]: 1.23 µg/mL | IC50 (neutralization, TZM-bl) [48]: > 50 µg/mL
